Test results as given in patent US12616740B2, “Methods of using a GIP/GLP1 co-agonist for therapy” (ELI LILLY AND COMPANY, priority 2018, dated 2026).

What was measured:
[1] = NCT03131687: decrease appetite (reported event); type: in vivo, human
Procedure: Clinical Study (NCT03131687) Supporting Maintenance Dose Embodiments A 6-month (26-week) Phase 2 double-blind clinical study is designed to evaluate the safety, efficacy, and PK/PD of 4 dose levels (1 mg, 5 mg, 10 mg and 15 mg respectively) of tirzepatide once weekly by subcutaneous injection compared with dulaglutide 1.5 mg. once weekly (QW) and placebo QW in patients with T2DM who have inadequate glycemic control with diet and exercise with or without a stable dose of metformin. Tirzepatide dose is up-titrated to the maintenance dose using the following weekly dose increments:
The study also has a 4-week follow up period. In addition to safety and efficacy for treating T2DM, efficacy endpoints include the effect of tirzepatide on HbA1c, FBG, body weight, lipids, and waist circumference compared with placebo and with dulaglutide 1.5 mg. The study also evaluates the effect of tirzepatide on GI tolerability, hypoglycemia, hypersensitivity reactions, and pancreatic safety, as well as the development of treatment-emergent anti-drug antibodies. Model-based dose response analyses are performed to predict potential for significant HbA1c lowering and weight loss in longer studies. Statistical Analyses: Efficacy: The primary efficacy outcome of HbA1c change from baseline to the 26-week endpoint is analyzed using a Bayesian dose-response model. Analyses are performed on the intention to treat population (mITT) analysis set. Supportive analysis of the primary efficacy outcome for the mITT dataset are the model for post-baseline measures (MMRM) with body mass index (BMI) (<30 kg/m^2, ≥30 kg/m^2), metformin use, treatment, visit, and treatment-by-visit interaction as fixed effects, baseline HbA1c as a covariate, and patient as a random effect. The mean weight change from baseline at 12 and 26 weeks, along with the mean change from baseline of HbA1c at 12 weeks, is analyzed using similar dose-response models as the primary analyses. The percentages of patients with ≥5% or ≥10% body weight loss, reaching the HbA1c target of ≤6.5% or ≤7.0% at 26 weeks, or requiring rescue therapy are analyzed using logistic regression with fixed effects of treatment and strata, and baseline as a covariate. The changes from baseline in FBG (fasting blood glucose), SMBG (self-monitored blood glucose) levels, waist circumference, and mean percentage change in lipids from baseline to 12 and 26 weeks are analyzed using a similar MMRM to the one used for the primary analyses. Table Abbreviations: Dula 1.5 mg=dulaglutide 1.5 mg once weekly; LY means tirzepatide, and LY 1 mg=tirzepatide 1 mg once weekly; LY 5 mg=5 mg once weekly; LY 10 mg=escalation dose group tirzepatide once weekly with highest dose of 10 mg; LY 15 mg=escalation dose group of tirzepatide once weekly with highest dose 15 mg; LOCF=last observation-carried-forward; N=number of patients; pbo=placebo; Week 26=mITT on-treatment data at Week 26 excluding data after study drug discontinuation or rescue drug initiation; mITT=modified intent-to-treat; SD=standard deviation. For Table 4, n=number of patients in the population with baseline and post-baseline value at the specified time point. For Table 6, LY10 mg=escalation dose group tirzepatide, once weekly with highest dose of 10 mg; escalation dose: (5 mg weeks 0 and 1), LY15 mg=escalation dose group tirzepatide, once weekly with highest dose of 15 mg; escalation dose: (5 mg weeks 0 and 1; 10 mg weeks 2 to 5); N=number of patients in specified group, m=number of patients who experienced new event during interval, FolUp=follow up, T/Wk=Time range, (week) and %=means percent patients spending at least some time in treatment group who experienced new event during interval. For Table 7, n is the number of patients with events meeting the criteria; N is number of patients in the population; % is percent of patients in treatment group experiencing the event.

[2] = NCT03311724: nausea, vomiting and diarrhea, new events per interval; type: in vivo, human
Source text: This is a 12-week treatment with a 1 week screening (Visit 1) followed by a 1 week lead-in (Visit 2), then 12 weeks of treatment (Visits 3-10, including telephone visits), then followed by 4-week safety follow-up. It is a Phase 2 study designed to examine the efficacy and tolerability of subcutaneously once-weekly tirzepatide compared with placebo in patients with type 2 diabetes who have inadequate glycemic control with diet and exercise alone or with a stable dose of metformin. The study was designed per below and conducted to refine the escalation scheme.

[3] = LY1 mg = tirzepatide 1 mg once weekly, N = 52
[4] = LY5 mg = tirzepatide 5 mg once weekly, N = 55
[5] = LY10 mg = tirzepatide once weekly, highest dose 10 mg, N = 51
[6] = LY15 mg = tirzepatide once weekly, highest dose 15 mg, N = 53

tirzepatide [LY]
Decrease Appetite (reported): n, number of patients with events [1, 3]: n = 2; | Decrease Appetite (reported): percent of patients in treatment group experiencing the event [1, 3]: 3.8% | Decrease Appetite (reported): n, number of patients with events [1, 4]: n = 10; | Decrease Appetite (reported): percent of patients in treatment group experiencing the event [1, 4]: 18.2% | Decrease Appetite (reported): n, number of patients with events [1, 5]: n = 13; | Decrease Appetite (reported): percent of patients in treatment group experiencing the event [1, 5]: 25.5% | Decrease Appetite (reported): n, number of patients with events [1, 6]: n = 10; | Decrease Appetite (reported): percent of patients in treatment group experiencing the event [1, 6]: 18.9% | Nausea Vomiting and Diarrhea: m, number of patients who experienced new event during interval ([2]; LY12 mg Group 3 (tirzepatide 4 mg × 4, 8 mg × 4, 12 mg × 4 once weekly), N = 29, Follow-up): m = 1; | Nausea Vomiting and Diarrhea: m, number of patients who experienced new event during interval ([2]; LY12 mg Group 3 (tirzepatide 4 mg × 4, 8 mg × 4, 12 mg × 4 once weekly), N = 29, Overall): m = 14; | Nausea Vomiting and Diarrhea: m, number of patients who experienced new event during interval ([2]; LY12 mg Group 3 (tirzepatide 4 mg × 4, 8 mg × 4, 12 mg × 4 once weekly), N = 29, T/Wk 0): m = 9; | Nausea Vomiting and Diarrhea: m, number of patients who experienced new event during interval ([2]; LY12 mg Group 3 (tirzepatide 4 mg × 4, 8 mg × 4, 12 mg × 4 once weekly), N = 29, T/Wk 1): m = 5; | Nausea Vomiting and Diarrhea: m, number of patients who experienced new event during interval ([2]; LY12 mg Group 3 (tirzepatide 4 mg × 4, 8 mg × 4, 12 mg × 4 once weekly), N = 29, T/Wk 2): m = 1; | Nausea Vomiting and Diarrhea: m, number of patients who experienced new event during interval ([2]; LY12 mg Group 3 (tirzepatide 4 mg × 4, 8 mg × 4, 12 mg × 4 once weekly), N = 29, T/Wk 3): m = 3; | Nausea Vomiting and Diarrhea: m, number of patients who experienced new event during interval ([2]; LY12 mg Group 3 (tirzepatide 4 mg × 4, 8 mg × 4, 12 mg × 4 once weekly), N = 29, T/Wk 4): m = 3; | Nausea Vomiting and Diarrhea: m, number of patients who experienced new event during interval ([2]; LY12 mg Group 3 (tirzepatide 4 mg × 4, 8 mg × 4, 12 mg × 4 once weekly), N = 29, T/Wk 5): m = 0; | Nausea Vomiting and Diarrhea: m, number of patients who experienced new event during interval ([2]; LY12 mg Group 3 (tirzepatide 4 mg × 4, 8 mg × 4, 12 mg × 4 once weekly), N = 29, T/Wk 6): m = 2; | Nausea Vomiting and Diarrhea: m, number of patients who experienced new event during interval ([2]; LY12 mg Group 3 (tirzepatide 4 mg × 4, 8 mg × 4, 12 mg × 4 once weekly), N = 29, T/Wk 7): m = 1; | Nausea Vomiting and Diarrhea: m, number of patients who experienced new event during interval ([2]; LY12 mg Group 3 (tirzepatide 4 mg × 4, 8 mg × 4, 12 mg × 4 once weekly), N = 29, T/Wk 8): m = 4; | Nausea Vomiting and Diarrhea: m, number of patients who experienced new event during interval ([2]; LY12 mg Group 3 (tirzepatide 4 mg × 4, 8 mg × 4, 12 mg × 4 once weekly), N = 29, T/Wk 9): m = 1; | Nausea Vomiting and Diarrhea: m, number of patients who experienced new event during interval ([2]; LY12 mg Group 3 (tirzepatide 4 mg × 4, 8 mg × 4, 12 mg × 4 once weekly), N = 29, T/Wk 10): m = 1; | Nausea Vomiting and Diarrhea: m, number of patients who experienced new event during interval ([2]; LY12 mg Group 3 (tirzepatide 4 mg × 4, 8 mg × 4, 12 mg × 4 once weekly), N = 29, T/Wk 11): m = 0; | Nausea Vomiting and Diarrhea: m, number of patients who experienced new event during interval ([2]; LY12 mg Group 3 (tirzepatide 4 mg × 4, 8 mg × 4, 12 mg × 4 once weekly), N = 29, T/Wk 12): m = 1; | Nausea Vomiting and Diarrhea: m, number of patients who experienced new event during interval ([2]; LY15 mg-Group 1 (tirzepatide 2.5 mg × 2, 5 mg × 2, 10 mg × 4, 15 mg × 4 once weekly), N = 28, Follow-up): m = 0; | Nausea Vomiting and Diarrhea: m, number of patients who experienced new event during interval ([2]; LY15 mg-Group 1 (tirzepatide 2.5 mg × 2, 5 mg × 2, 10 mg × 4, 15 mg × 4 once weekly), N = 28, Overall): m = 16; | Nausea Vomiting and Diarrhea: m, number of patients who experienced new event during interval ([2]; LY15 mg-Group 1 (tirzepatide 2.5 mg × 2, 5 mg × 2, 10 mg × 4, 15 mg × 4 once weekly), N = 28, T/Wk 0): m = 6;
